# Paper PMC7190724, “Improved GPCR ligands from nanobody tethering” (Nature Communications, 2020)
# T1: PTHR1GFP (Homo sapiens, UniProt Q03431)
# T1 sequence (Q03431 27-593): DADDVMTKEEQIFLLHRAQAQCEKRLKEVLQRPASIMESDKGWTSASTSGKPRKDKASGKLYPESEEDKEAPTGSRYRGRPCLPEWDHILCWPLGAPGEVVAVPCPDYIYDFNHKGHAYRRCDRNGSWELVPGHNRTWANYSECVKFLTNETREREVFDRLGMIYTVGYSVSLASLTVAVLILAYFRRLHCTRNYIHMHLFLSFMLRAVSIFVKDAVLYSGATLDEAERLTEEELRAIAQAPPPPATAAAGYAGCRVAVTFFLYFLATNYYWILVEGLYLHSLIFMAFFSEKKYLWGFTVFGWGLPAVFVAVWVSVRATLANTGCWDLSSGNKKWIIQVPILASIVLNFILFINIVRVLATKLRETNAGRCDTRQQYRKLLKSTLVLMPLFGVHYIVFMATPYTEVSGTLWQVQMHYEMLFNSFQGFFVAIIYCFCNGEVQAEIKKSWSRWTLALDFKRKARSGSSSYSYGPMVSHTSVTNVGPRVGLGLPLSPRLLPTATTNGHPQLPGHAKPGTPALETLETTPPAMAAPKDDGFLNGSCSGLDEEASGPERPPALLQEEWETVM
# How the values were obtained:
# PTHR1 = test: Flow cytometry binding to HEK293 expressing human PTHR1; conditions: flow cytometry MFI, VHH-Alexafluor647, 1 h on ice; no plateau, estimate
# Text: Cells were pelleted by centrifugation and washed with PBS prior to analysis by flow cytometry (BD Accuri C6).
# Supplementary Figure 4. […] Cells
# (§1) (1 picture or pasted object on this page, not shown here)
# rat PTHR1 (rPTHR1) = test: Flow cytometry binding of VHH-Alexafluor647 to HEK293 expressing rat PTHR1; conditions: 100 nM VHH-Alexafluor647, on ice
# Method: (§2) Fig. 3 Binding of VHHs to HEK293 cell lines stably transfected with PTHRs. a Analysis of VHH binding to PTHR1, PTHR2 and variants by flow cytometry. HEK293 cell lines in suspension were incubated on ice with 100 nM VHH sortagged with Alexafluor647, pelleted by centrifugation, washed and analyzed. Data for PTHR1-GFP is found in Supplementary Fig. 1. b Analysis of VHH binding with microscopy. Adherent HEK293 cells expressing human PTHR1 were stained on ice with 50 nM VHHPTHR-tetramethylrhodamine (TMR, red) and 30 nM PTH(1-20)-fluorescein (FAM, green) for 30 min. Following staining, cells were washed and treated with fixative in preparation for image acquisition either immediately after staining (0 min) or following a 15-min incubation in medium at room temperature (15 min). Nuclei (blue) were stained with DAPI. The scale bar (20 μm) is at the bottom left image and is applicable to each image in this panel. This experiment was repeated twice with similar results.
# (§3) Suspensions of cells in PBS were stained for 1 h on ice in the presence of indicated concentrations of VHH probes functionalized with Alexafluor647. Cells were pelleted by centrifugation and washed with PBS prior to analysis by flow cytometry (BD Accuri C6). […] Data were analyzed using FlowJo version 7.6. […]
# PTHR2 = test: Flow cytometry binding of VHH-Alexafluor647 to HEK293 expressing PTHR2; design: species or system human; conditions: 100 nM VHH-Alexafluor647, on ice
# Method: as §2, §3
# PTHR1_6E = test: Flow cytometry binding of VHH-Alexafluor647 to HEK293 expressing PTHR1_6E; design: species or system human; conditions: flow cytometry MFI, VHH-Alexafluor647, 1 h on ice
# Method: (§4) Suspensions of cells in PBS were stained for 1 h on ice in the presence of indicated concentrations of VHH probes functionalized with Alexafluor647. Cells were pelleted by centrifugation and washed with PBS prior to analysis by flow cytometry (BD Accuri C6). To select intact cells gating was performed on forward scatter/side scatter profiles for analysis (see Supplementary Fig. 4 for an example of the gating strategy). Data were analyzed using FlowJo version 7.6. The median fluorescent intensity (MFI) of stained cells was used to generate VHH binding dose response curves (Supplementary Fig. 4).
# Supplementary Figure 4. Assessment of VHH binding to PTHR1 variants by flow cytometry. Cells dislodged from tissue culture plates using trypsinization were incubated with varied concentrations of VHHs sortagged with AlexaFluor647 on ice for 1 h. Cells were centrifuged, washed, and analyzed by flow cytometry via gating of intact cells (live gate) based on forward scatter/side scatter profiles (panel a). (b) Data points represent median fluorescent intensity values ( individual data points shown, n = 2 independent replicates per condition). Connecting curves are the result of fitting a sigmoidal dose - response model to the data points. Precise estimates for VHH PTHR binding cannot be provided since the […]
# as §1
# PTHR1GFP = target: T1, PTHR1GFP; test: Flow cytometry binding of VHH-Alexafluor647 to HEK293 expressing PTHR1GFP; conditions: flow cytometry MFI, VHH-Alexafluor647, 1 h on ice; no plateau, estimate
# Method: as §4
# Supplementary Figure 1. […] HEK293 cell lines in suspension were incubated on ice with 100 nM VHH sortagged with Alexafluor647, pelleted by centrifugation, washed and analyzed. […]
# PTHR1GFP. This weak staining is likely related to the inability of VHHGFP to tightly bind the pH-sensitive GFP variant known as pHluorin2 engrafted into the receptor(ref. 19, main text). c) HEK293 cells stably expressing PTHR1-GFP were treated with varied doses of the indicated peptides or conjugates and activation was assessed by measuring luminescence from a cAMP-activated luciferase variant. […]
# Supplementary Figure 4. […] Cells were centrifuged, washed, and analyzed by flow cytometry via gating of intact cells (live gate) based on forward scatter/side scatter profiles (panel a). […]
molecule,measurement,setting,value
"VHHPTHR: nanobody that recognizes PTHR1 itself, sequence from the literature (named 22A3) (antibody, V domains shown) VH: EVQLVESGGGLVQAGGSLRLSCAASGNIFANNIMGWYRQPPGKEREFVAHVSHDGDSMYAVSVKGRFAISRKDATNLYLQMNSLKPEDTAIYFCRLLNIPTQGRMEGFWGQGTQVTVSS",half-maximal staining concentration,PTHR1,100 to 200 nM
same,staining of cells,rat PTHR1 (rPTHR1),bound
same,staining of cells,PTHR2,binds to PTHR1 but not PTHR2
same,half-maximal staining concentration,PTHR1_6E,100 to 200 nM
same,half-maximal staining concentration,PTHR1GFP,100 to 200 nM
